The chains are these.
T1: human IL-18BP (human, UniProt O95998 31-194)
T1 construct: UniProt printed as 095998; also called hIL-18BP
T1 sequence: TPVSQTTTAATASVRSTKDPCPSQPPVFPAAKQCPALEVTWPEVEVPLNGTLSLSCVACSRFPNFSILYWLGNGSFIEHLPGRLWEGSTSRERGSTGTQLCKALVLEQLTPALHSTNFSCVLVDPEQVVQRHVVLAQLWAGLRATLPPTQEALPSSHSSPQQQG

T2: cynomolgus IL-18BP (cynomolgus monkey)
T2 construct: also called cyno IL-18BP; cyIL-18BP
T2 chain: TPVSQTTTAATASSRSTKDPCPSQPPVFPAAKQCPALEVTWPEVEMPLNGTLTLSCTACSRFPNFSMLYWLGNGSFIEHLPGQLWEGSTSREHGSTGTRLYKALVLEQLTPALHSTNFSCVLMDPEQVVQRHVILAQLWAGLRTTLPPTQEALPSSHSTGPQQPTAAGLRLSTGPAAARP

T3: human IL-18BP (interleukin-18 binding protein, isoform A) (human, UniProt O95998 31-194)
T3 construct: cell assays used Sino Biological 10357-H08H; PBMC assay 1 relies on endogenous IL-18BP; UniProt number is printed as 095998; also called hIL-18BP
T3 sequence: T1 sequence

T4: cynomolgus IL-18BP (cynomolgus monkey)
T4 construct: Generated in-house; also called cyIL-18BP; cyno IL-18BP
T4 chain: T2 chain

B1: SA301a HC-Y50A (antibody, name in Kabat numbering, V domains shown)
VH: QVQLQESGPGLVKPSQTLSLTCTVSGYSITSDYNSHWIRQPPGKGLEWIGAIHYSGSTNYNPSLKSRVTISRDTSKNQFSLKLSSVTAADTAVYYCARNYGSIYVNYFDYWGQGTLVTVSS
VL: EIVLTQSPATLSLSPGERATLSCSASSSVSYMYWYQQKPGQAPRPLIYRTSNLASGIPARFSGSGSGTDFTLTISSLEPEDFAVYYCQQYHSYPTFGGGTKVEIK
notes: IgG1 kappa
B2: SA301a HC-I51Y (antibody, name in Kabat numbering, V domains shown)
VH: B1 VH with A51Y, I52Y
VL: B1 VL
notes: IgG1 kappa
B3: SA301a HC-I51A (antibody, name in Kabat numbering, V domains shown)
VH: B1 VH with A51Y, I52A
VL: B1 VL
notes: IgG1 kappa
B4: SA301a HC-Y50G (antibody, name in Kabat numbering, V domains shown)
VH: B1 VH with A51G
VL: B1 VL
notes: IgG1 kappa
B5: SA301a HC-Y50R (antibody, name in Kabat numbering, V domains shown)
VH: B1 VH with A51R
VL: B1 VL
notes: IgG1 kappa
B6: SA301a HC-Y50D (antibody, name in Kabat numbering, V domains shown)
VH: B1 VH with A51D
VL: B1 VL
notes: IgG1 kappa
B7: SA301a HC-I51G (antibody, name in Kabat numbering, V domains shown)
VH: B1 VH with A51Y, I52G
VL: B1 VL
notes: IgG1 kappa
B8: SA301a HC-Y50P (antibody, name in Kabat numbering, V domains shown)
VH: B1 VH with A51P
VL: B1 VL
notes: IgG1 kappa
B9: SA301a HC-I51R (antibody, name in Kabat numbering, V domains shown)
VH: B1 VH with A51Y, I52R
VL: B1 VL
notes: IgG1 kappa
B10: SA301a HC-I51P (antibody, name in Kabat numbering, V domains shown)
VH: B1 VH with A51Y, I52P
VL: B1 VL
notes: IgG1 kappa
B11: SA301a HC-Y50S (antibody, name in Kabat numbering, V domains shown)
VH: B1 VH with A51S
VL: B1 VL
notes: IgG1 kappa
B12: SA301a HC-Y50M (antibody, name in Kabat numbering, V domains shown)
VH: B1 VH with A51M
VL: B1 VL
notes: IgG1 kappa
B13: SA301a HC-I51F (antibody, name in Kabat numbering, V domains shown)
VH: B1 VH with A51Y, I52F
VL: B1 VL
notes: IgG1 kappa
B14: SA301a HC-Y50Q (antibody, name in Kabat numbering, V domains shown)
VH: B1 VH with A51Q
VL: B1 VL
notes: IgG1 kappa
B15: SA301a HC-Y50I (antibody, name in Kabat numbering, V domains shown)
VH: B1 VH with A51I
VL: B1 VL
notes: IgG1 kappa
B16: SA301a HC-Y50H (antibody, name in Kabat numbering, V domains shown)
VH: B1 VH with A51H
VL: B1 VL
notes: IgG1 kappa
B17: SA301a HC-I51D (antibody, name in Kabat numbering, V domains shown)
VH: B1 VH with A51Y, I52D
VL: B1 VL
notes: IgG1 kappa
B18: SA301a HC-Y50F (antibody, name in Kabat numbering, V domains shown)
VH: B1 VH with A51F
VL: B1 VL
notes: IgG1 kappa
B19: SA301a HC-I51L (antibody, name in Kabat numbering, V domains shown)
VH: B1 VH with A51Y, I52L
VL: B1 VL
notes: IgG1 kappa
B20: SA301a HC-I51V (antibody, name in Kabat numbering, V domains shown)
VH: B1 VH with A51Y, I52V
VL: B1 VL
notes: IgG1 kappa
B21: SA301a HC-I51S (antibody, name in Kabat numbering, V domains shown)
VH: B1 VH with A51Y, I52S
VL: B1 VL
notes: IgG1 kappa
B22: SA301a HC-Y50V (antibody, name in Kabat numbering, V domains shown)
VH: B1 VH with A51V
VL: B1 VL
notes: IgG1 kappa
B23: SA301a HC-I51M (antibody, name in Kabat numbering, V domains shown)
VH: B1 VH with A51Y, I52M
VL: B1 VL
notes: IgG1 kappa
B24: SA301a HC-Y50L (antibody, name in Kabat numbering, V domains shown)
VH: B1 VH with A51L
VL: B1 VL
notes: IgG1 kappa
B25: SA301a HC-H52V (antibody, name in Kabat numbering, V domains shown)
VH: B1 VH with A51Y, H53V
VL: B1 VL
notes: IgG1 kappa
B26: SA301a HC-Y50E (antibody, name in Kabat numbering, V domains shown)
VH: B1 VH with A51E
VL: B1 VL
notes: IgG1 kappa
B27: SA301a HC-I51E (antibody, name in Kabat numbering, V domains shown)
VH: B1 VH with A51Y, I52E
VL: B1 VL
notes: IgG1 kappa
B28: SA301a HC-I51T (antibody, name in Kabat numbering, V domains shown)
VH: B1 VH with A51Y, I52T
VL: B1 VL
notes: IgG1 kappa
B29: SA301a HC-Y50K (antibody, name in Kabat numbering, V domains shown)
VH: B1 VH with A51K
VL: B1 VL
notes: IgG1 kappa
B30: SA301a HC-I51K (antibody, name in Kabat numbering, V domains shown)
VH: B1 VH with A51Y, I52K
VL: B1 VL
notes: IgG1 kappa
B31: SA301a heavy chain variant N33bK, C34S (antibody, human IgG1, V domains shown)
VH: B1 VH with N34K, A51Y
VL: B1 VL
notes: library variant, human IgG1/kappa, from supernatant
B32: SA301a heavy chain variant N33bL, C34S (antibody, human IgG1, V domains shown)
VH: B1 VH with N34L, A51Y
VL: B1 VL
notes: as for B31
B33: SA301a heavy chain variant N33bG, C34S (antibody, human IgG1, V domains shown)
VH: B1 VH with N34G, A51Y
VL: B1 VL
notes: as for B31
B34: SA301a heavy chain variant N33bE, C34S (antibody, human IgG1, V domains shown)
VH: B1 VH with N34E, A51Y
VL: B1 VL
notes: as for B31
B35: SA301a heavy chain variant N33bD, C34S (antibody, human IgG1, V domains shown)
VH: B1 VH with N34D, A51Y
VL: B1 VL
notes: as for B31

Substitutions are numbered along the chain they refer to.

One assay concerns the target T1, human IL-18BP. Description: BLI, apparent KD. In general terms: BLI is a label-free optical method that tracks binding on a fibre tip over time.
As for B1, the Kd was found to be 2.97 nM. Turning to B2, the Kd amounted to 1.46 nM.

In the case of B3, the Kd was found to be 0.73 nM.

Take B4: the Kd is 1.03 nM. The same measure, in the same setting: the figure for B5 is 1.19 nM; for B6 it is 5.28 nM; for B7 it is 0.92 nM. Regarding B8, the Kd was 1.08 nM. Consider B9, for which the Kd is 2 nM.

For the molecule B10, the Kd was 3.73 nM. On to B11, for which the Kd was determined as 2.17 nM. B12: the Kd is 2.06 nM. As for B13, the Kd worked out at 2.38 nM.

B14: the Kd was determined as 1.13 nM.

On to B15, for which the Kd amounted to 3.37 nM. In the case of B16, the Kd was found to be 1.87 nM. Take B17: the Kd is 1.99 nM.

For B18, the Kd came out at 2.18 nM. Same read-out and setting: the result for B19 reads 0.69 nM; that for B20, 0.3 nM; that for B21, 0.57 nM. With B22, the Kd worked out at 1.96 nM.

For the molecule B23, the Kd came to 0.56 nM. With B24, the Kd is 2.56 nM. Same read-out and setting: the figure for B25 is 0.34 nM; for B26 it is 3.44 nM; for B27 it is 1.53 nM. Consider B28, for which the Kd is 0.67 nM. In the case of B29, the Kd was 1.08 nM. The same measure, in the same setting: the result for B30 reads 0.49 nM.

The target of the next assay is T2, cynomolgus IL-18BP. Description: BLI, apparent KD.
On to B1, for which the Kd is 3.8 nM. Regarding B2, the Kd is 1.27 nM.

Regarding B3, the Kd is 0.81 nM. As to B4, the Kd stood at 2.85 nM. As to B5, the Kd was determined as 4.98 nM. With B6, the Kd came out at 16.5 nM. With B7, the Kd was found to be 0.87 nM. For B8, the Kd amounted to 4.49 nM. As for B9, the Kd amounted to 1.57 nM. Consider B10, for which the Kd was determined as 1.93 nM.

In the case of B11, the Kd turned out to be 2.48 nM.

B12: the Kd is 1.8 nM. In the case of B13, the Kd came to 1.55 nM. The same measure, in the same setting: the figure for B14 is 1.12 nM; for B15 it is 6.42 nM. On to B16, for which the Kd came to 3.87 nM. Regarding B17, the Kd was 2.17 nM. Consider B18, for which the Kd is 1.81 nM. As to B19, the Kd turned out to be 0.64 nM. As for B20, the Kd was 0.55 nM. On to B21, for which the Kd came to 0.82 nM. With B22, the Kd stood at 10.2 nM. The same measure, in the same setting: the result for B23 reads 0.62 nM; that for B24, 1.7 nM. On to B25, for which the Kd came out at 0.88 nM.

As for B26, the Kd is 8.97 nM. The same measure, in the same setting: the figure for B27 is 0.95 nM. Take B28: the Kd is 0.78 nM. With B29, the Kd was 2.43 nM.

On to B30, for which the Kd was 0.59 nM.

The target in a further assay is T3, human IL-18BP (interleukin-18 binding …). The assay is described as follows: BLI single-concentration screen, apparent KD.
Regarding B31, the Kd is 0.4 nM.

For the molecule B32, the Kd worked out at 0.8 nM.

Turning to B33, the Kd is 0.2 nM.

As to B34, the Kd turned out to be 0.1 nM.

A further assay addresses T4, cynomolgus IL-18BP. Description: BLI single-concentration screen, apparent KD.
For B35, the Kd came to 0.1 nM.

As for B31, the Kd came to 0.9 nM. Regarding B32, the Kd is 0.6 nM. The same measure, in the same setting: the result for B33 reads 0.5 nM; that for B34, 0.2 nM.

These data come from patent publication US20250368745A1 (published 2025).
